Results from a protein production outcome set (Wang et al. 2014).

Test: label from the status in PepcDB records

Sequence	protein production
PIGKSADNMYSYLALVQDDPTVQVVNMAQKAYVEHYIQGDPDLAKLPVLSAAAPFKVGGRKNDPASFVEVEKGQLTFRNAADLYLYPNTLVVMKVSGKEVKEWLECSAGQFNQIDPASSKPQSLINWDGFRTYNFDVIDGVNYQIDVTQPARYDGECQMIHPQAERIKHLTFNGKPVDPQATFLVATNNYRAYGGKFAGTGESHIAFASPDENRSVLAAWIGAQSKKEGAIHPAADNNWRLAPIHSN	failed
PKLTRVDIAHDDFEGKHISVDWGNMQDGLGGFQLGNRAPNIEHKGNWRRPNGKGRTLCIGSRDSGKYLRLYEKGRAEGDPNDNWQRAEVEFKSIDRVLPFDMLLAPSEFFIAAYPCFRDLAQHLQPERIETISKTAQINFQTAIENLKHQYGKYINIFKEVFEPEELINLISCSDPLAYPKRLDHVLITARRM	failed
PLALFKWDLGFNLLECNQSAISMLNYTEDELKQCDFISALVPINEQKRVNKTCSDLLVNEGGEHGFNSLIKQNGNIILTEWHNSLIKDDS	failed
PLLDSFKVDHTKMNAPAVRIAKTMLTPKGDNITVFDLRFCIPNKEILSPKGIHTLEHLFAGFMRDHLNGDSIEIIDISPMGCRTGFYMSLIGTPNEQKVSEAWLASMQDVLGVQDQASIPELNIYQCGSYTEHSLEDAHEIAKNVIARGIGVNKNEDLSLDNSLLK	not failed
PLPNPEGLDSDFLAVLSDYPSPDISPPIFRRGEKLRVISDEGGWWKAISLSTGRESYIPGICVARV	not failed
PMEDEPTSKKLKTEDSLMPEEEFLRRNKGPVSIKVQVPNMQDKTEWKLNGQVLVFTLPLTDQVSVIKVKIHEATGMPAGKQKLQYEGIFIKDSNSLAYYNMANGAVIHLALKERGGRKK	failed
PPGPCLPPRLQGRPKAKEIQLRWGPPLVDGGSPISCYSVEMSPIEKDEPREVYQGSEVECTVSSLLPGKTYSFRLRAANKMGFGPFSEKCDITTAPG	not failed
PPNDNIPTPLEKEEKAKEASDNKEKTKETSNSAQNAQNTQASDKTSDNKSTAPKETIKHFTQQLKQEIQEYKPPMSRISMDLFPKELGKVEVIIQKVGKNLKVSVISHNNSLQTFLDNQQDLKNSLNALGFEGVDLSFSQDS	failed
PPQAMNALMRLNQLKPGLQYKLVSQTGPVHAPIFTMSVEVDGNSFEASGPSKKTAKLHVAVKVLQDMGLPTGAEGRDSSKGEDS	failed
PPVIRQGPVNQTVAVDGTFVLSCVATGSPVPTILWRKDGVLVSTQDSRIKQLENGVLQIRYAKLGDTGRYTCIASTPSGEATWSAYIEVQEFGVPVQPPRPTDPNLIPSAP	not failed
PQKIFTPSAEIVKYTKIIAMEKLYAVFTDYEHDKVSRDEAVNKIRLDTEEHLKEKFPEVDQFEIIESFNIVAKEVFRSIILNEYKRCDGRD	not failed
PRPAVSVAPTTEAESFVQDRIEEDGLHVVHFWAPWCANSRNELDNGWAGLVADNPDVTFTFVTVWNDDESGAAMLNDYNLPDRVVEVTQPDLGPSDTEANRRYSFLGLPVTWIPSTWIFHSNGELAFAMNYGEMEMQTVQRLLDATSADW	failed
PTLDSVEDGVLKKVVINISNSCNLSCSYCYADGGNYGMDNRIMDLTTADNIIQEIASKGVTQINRLILFGGEPFLNIELFIYFIEKLSTLLNVVKIETVTNGTVLNKRVKEMLVKFHPYLTISLDGPEIVHDRLRGRGSHRKTLRFINYLKNIDYE	failed
QAEMTQRMQQLEALNDLNRAILAASDAEQIAQIGLRSLRRQVPFWGATAMLIDWESSCARVLAIERAPGASYDPGQRLSLVSYGMEDLERMKRGETCVVTDLGQIPRRALTLERLYQQGIQSYARIPLLAEGRLLGMLNLASDAVGAFDAAQLDVAQAYARHLAVSLQQSLL	failed
QAPLRIECTDISHIQGTDVVASLVVFEDGLPRKSDYRRYRVKEAAGDGHSNDVASIAEITRRRFLRHNQDKLAVPEAEEFDGSTFSDEKVEEMSTDARRFAYPPQIFIVDGGAPQVAAAQEVFDELGIVDVVLIGLAKRLEEIWLPGDPDPVILPRNSQALFLLQQIRDEAHRFAITYHRQQRSKRMRVSELDSIKG	failed
QAVPCRAPKVGRLIYTAGGYFRQSLSYLEAYNPSNGSWLRLADLQVPRSGLAGCVVGGLLYAVGGRNNSPDGNTDSSALDCYNPMTNQWSPCASMSVPRNRIGVGVIDGHIYAVGGSHGCIHHSSVERYEPERDEWHLVAPMLTRRIGVGVAVLNRLLYAVGGFDGTNRLNSAECYYPERNEWRMITPMNTIRSGAGVCVLHNCIYAAGGYDGQDQLNSVERYDVETETWTFVAPMRHRSALGITVHQGKIYVLGGYDGHTFLDSVECYDPDSDTWSEVTRMTSGRSGVGVAVTMEPCRKQIDQQNCTC	not failed
QIGVPPSGPMDDLSFRLGNTALGNPEGAPGLEFTMAGPALRFTHATTVCVTGADVTVTVNGNTANTWEPITVPENGLLDVGSADGSGLRGYILFEGGLDVPRYLGSASTFTLGQFGGHGGRVLRTSDVLRTVSDHLPETVPGVVPEESRPALTSDWELKVVEGPHGAPEFFEREDIEELYAAEYEVHFNSARTGVRLIGPKPRWARNDGGEAGLHPSNIHDTAYSVGALDFTGDTPILLGPDGPSLGGFVCPVTVVTGERWKLGQLRPGDKVRFVPIRSVEAPSVKELGAAR	failed
QIHLFSEPQFQGHSQSFEETTSQIDDSFSTKSCRVSGGSWVVYDGENFTGNQYVLEEGHYPCLSAMGCPPGATFKSLRFI	not failed
QKEKCFKCNKCEKTFSCSKYLTQHERIHTRGVK	not failed
QKIEKQYDADLEQILIQWITTQCRKDVGRPQPGRENFQNWLKDGTVLCELINALYPEGQAPVKKIQASTMAFKQMEQISQFLQAAERYGINTTDIFQTVDLWEGKNMACVQRTLMNLGGLAVARDDGLFSGDPNWFPKKSKE	not failed
QKKDTSNHFHVFVGDLSPEITTEDIKAAFAPFGRISDARVVKDMATGKSKGYGFVSFFNKWDAENAIQQMGGQWLGGRQIRTNWATRKPPAPKSTYESNTKQ	not failed
QKVPLPSLSPTMQAGTIARWEKKEGDKINEGDLIAEVETDKATVGFESLEECYMAKILVAEGTRDVPIGAIICITVGKPEDIEAFKNYTLDSSAA	not failed
QPSRFLLKVLAGANIGAEFHLDSGKTYIVGSDPQVADIVLSDMSISRQHAKIIIGNDNSVLIEDLGSKNGVIVEGRKIEHQSTLSANQVVALGTTLFLLVDYAAPS	not failed
QQKLAANVFKNSQDGVLIYDADGKLTLMNPAFTDIFGYQMSELSNIPMLTLFDGHHFTTSTSLITESIQRFGQWHGEVLEKDKYGAELPLYVKASKIIDTEQYGQNSYIFIFTNLS	failed
QRISLEIMTLQPRCEDVETAEGVALTVTGVAQVKIMTEKELLAVACEQFLGKNVQDIKNVVLQTLEGHLRSILGTLTVEQIYQDRDQFAKLVREVAAPDVGRMGIEILSFTIKDVYDKVDYLSSLGKTQT	not failed
QSAKEAIEAANADFVKAYNSKDAAGVASKYMDDAAAFPPDMARVDGRQNIQKLWQGAMDMGISELKLTTLDVQESGDFAFESGSFSLKAPGKDSKLVDAAGKYVVVWRKGQDGGWKLYRDIWNSDPAK	not failed
QSTGQVTLGVLTDMSSVYADSAGKGSVAAVQLAIEDVGGKALGQPVKLVSADYQMKTDVALSIAREWFDRDGVDAIFDVVNSGTALAINNLVKDKKKLAFITAAAADQIGGTECNGYGIGFLYNFTSIVKTVVQAQLAKGYKTWFLMLPDAAYGDLMNAAIRRELTAGGGQIVGSVRFPFETQDFSSYLLQAKASGAQLIVSTSGGAANINIMKQAREFGLPSKTQKVGGMIDILTDVKSAGLRVMQGQEYATSFYWNMDDRTRAFAKRFYAKMGKMPTNNQAGGYSAALQYLKAVNAIGSKDPQKVFAYLKTIKFDDAVTRHGTLRPGGRLVRDMYLVRAKKPEDQKGDWDYYDVVATIGPEQAFGPLSESRCAMDK	not failed
